Biological target: Mal3 (UniProt Q10113)
Experiment: Mal3-GST pull-down from yeast lysate
Conditions: reference: wild-type Klp2-GFP; sites S113,S123

binding against the reference: stronger
Substance: Klp2 (from UniProt Q9US03) Klp2-2A-GFP
